Measured values reported in patent US20090209615A1, “INHIBITORS OF MATRIX METALLOPROTEINASES TO TREAT NEUROLOGICAL DISORDERS” (priority 2004, published 2009).

Test: Stability of S-nitrosothiols (NAT conversion from DAN)
Conditions: within 15 min of incubation

B1: S-nitroso-MMP-9: S-nitrosylation product of SNOC-treated R-proMMP-9 (protein, UniProt P14780 20-707, looked up)
pro-form: APRQRQSTLVLFPGDLRTNLTDRQLAEEYLYRYGYTRVAEMRGESKSLGPALLLLQKQLSLPETGELDSATLKAMRTPRCGVPDLGRFQTFEGDLKWHHHNITYWIQNYSEDLPRAVIDDAFARAFALWSAVTPLTFTRVYSRDADIVIQFGVAEHGDGYPFDGKDGLLAHAFPPGPGIQGDAHFDDDELWSLGKGVVVPTRFGNADGAACHFPFIFEGRSYSACTTDGRSDGLPWCSTTANYDTDDRFGFCPSERLYTQDGNADGKPCQFPFIFQGQSYSACTTDGRSDGYRWCATTANYDRDKLFGFCPTRADSTVMGGNSAGELCVFPFTFLGKEYSTCTSEGRGDGRLWCATTSNFDSDKKWGFCPDQGYSLFLVAAHEFGHALGLDHSSVPEALMYPMYRFTEGPPLHKDDVNGIRHLYGPRPEPEPRPPTTTTPQPTAPPTVCPTGPPTVHPSERPTAGPTGPPSAGPTGPPTAGPSTATTVPLSPVDDACNVNIFDAIAEIGNQLYLFKDGKYWRFSEGRGSRPQGPFLIADKWPALPRKLDSVFEERLSKKLFFFSGRQVWVYTGASVLGPRRLDKLGLGADVAQVTGALRSGRGKMLLFSGRRLWRFDVKAQMVDPRSASEVDRMFPGVPLDTHDVFQYREKAYFCQDRFYWRVSSRSELNQVDQVGYVTYDILQCPED
modifications: pro-form S-nitrosylated
In the case of B1, the remained is reported as “over 80%”.
